Data as given in paper PMC6591243, “Characterization of metal binding of bifunctional kinase/phosphatase AceK and implication in activity modulation” (Scientific Reports, 2019).
Positions count from the first letter of the chain named. Names and notes keep the numbering of the source.

B1: isocitrate dehydrogenase kinase/phosphatase (AceK) wild-type (enzyme)
chain: MPRGLELLIAQTILQGFDAQYGRFLEVTSGAQQRFEQADWHAVQQAMKNRIHLYDHHVGLVVEQLRCITNGQSTDAAFLLRVKEHYTRLLPDYPRFEIAESFFNSVYCRLFDHRSLTPERLFIFSSQPERRFRTIPRPLAKDFHPDHGWESLLMRVISDLPLRLRWQNKSRDIHYIIRHLTETLGTDNLAESHLQVANELFYRNKAAWLVGKLITPSGTLPFLLPIHQTDDGELFIDTCLTTTAEASIVFGFARSYFMVYAPLPAALVEWLREILPGKTTAELYMAIGCQKHAKTESYREYLVYLQGCNEQFIEAPGIRGMVMLVFTLPGFDRVFKVIKDRFAPQKEMSAAHVRACYQLVKEHDRVGRMADTQEFENFVLEKRHISPALMELLLQEAAEKITDLGEQIVIRHLYIERRMVPLNIWLEQVEGQQLRDAIEEYGNAIRQLAAANIFPGDMLFKNFGVTRHGRVVFYDYDEICYMTEVNFRDIPPPRYPEDELASEPWYSVSPGDVFPEEFRHWLCADPRIGPLFEEMHADLFRADYWRALQNRIREGHVEDVYAYRRRQRFSVRYGEMLF
B2: AceK D477A (enzyme)
chain: B1 chain with D477A
B3: AceK D477K (enzyme)
chain: B1 chain with D477K
B4: AceK D475A (enzyme)
chain: B1 chain with D475A

Tests used:
[1] = biological target: T1, AceK (isocitrate dehydrogenase kinase/phosphatase) (Escherichia coli, UniProt P11071); experiment: X-ray crystallography; assay type: binding; conditions: allosteric site at interface of kinase and regulatory domains; complex with ADP and Mn2+; AMP not listed among crystallisation additions
T1 construct: hexahistidine-tagged, expressed in E. coli BL21 (DE3), Ni-NTA and Superdex200; 66 kDa

[2] = biological target: T2, phospho-IDH (isocitrate dehydrogenase phosphorylated by AceK) (E. coli) (UniProt P08200)
T2 sequence (chain, phosphorylated by AceK (residue not printed)): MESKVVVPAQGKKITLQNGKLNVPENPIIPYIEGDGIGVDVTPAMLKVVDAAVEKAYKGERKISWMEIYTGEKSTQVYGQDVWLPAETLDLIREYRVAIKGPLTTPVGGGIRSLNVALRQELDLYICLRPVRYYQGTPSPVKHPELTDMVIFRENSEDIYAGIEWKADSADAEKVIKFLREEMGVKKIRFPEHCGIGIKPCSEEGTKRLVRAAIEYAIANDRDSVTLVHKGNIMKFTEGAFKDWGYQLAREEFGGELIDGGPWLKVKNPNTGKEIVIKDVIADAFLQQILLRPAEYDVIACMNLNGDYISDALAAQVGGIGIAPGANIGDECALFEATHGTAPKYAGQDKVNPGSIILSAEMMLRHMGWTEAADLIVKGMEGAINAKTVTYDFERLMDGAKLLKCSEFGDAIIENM

| Molecule | X-ray crystallography [1] | Km for phospho-IDH, phosphatase kinetics (20 mM Hepes pH 7.0, 2.0 mM Mn2+, 2.0 mM ADP, 37 °C) [2] |
| --- | --- | --- |
| Nc1ncnc2c1ncn2[C@@H]1O[C@H](COP(=O)(O)O)[C@@H](O)[C@H]1O [AMP] | a buried ADP molecule and a bound AMP at the interface of the two domains |  |
| B1 |  | 0.376 μM |
| B2 |  | 16.1 μM |
| B3 |  | 12.2 μM |
| B4 |  | 1.95 μM |
